Test system: K4 kissing-loop RNA reporter
Test: apparent KD of K4 kissing-loop reporter; higher = weaker reporter binding
Settings: Eterna round: R107
Experimental: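 RNA-MaP round R107: designed RNA switches with theophylline, tryptophan, arginine or FMN aptamers are transcribed on-chip within common flanks. They are titrated with a labelled K4 kissing-loop RNA reporter in RNA-MaP buffer (100 mM Tris pH 7.5, 80 mM KCl, 4 mM MgCl2), without ligand or with the indicated ligand. Median apparent KD per design.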

[1] = input ligand: theophylline 20 uM
[2] = input ligand: tryptophan 2.4 mM
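Also: bound reporter read as fluorescence of individual clusters on recovered sequencing chips by microscopy, with normalized cluster intensities fitted with a binding model.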

Sequence | apparent KD of K4 kissing-loop reporter (input ligand: FMN 200 uM) [nM] | apparent KD of K4 kissing-loop reporter (input ligand: arginine 13.2 mM) [nM] | apparent KD of K4 kissing-loop reporter (input ligand: none) [nM] | apparent KD of K4 kissing-loop reporter [1] [nM] | apparent KD of K4 kissing-loop reporter [2] [nM]
AGGAUGUAGUGAUGUUAUAUAAGAAGUAAACGAGGACCGGUACGGCCGCCACUCGAAGCGGCUACUAGCGCGCCGCGAGGCGCGC [ExTryptoA.Cb] | 370 | 391 | 958 | 361 | 358
UAAUAUCCGUCGGCCGCCACUCACCAGUGAUGUUGGAGGAGUGAUGUUCCACGAGUGAUGUUCGAGAGGACCGGGACGGACGAUG [6th] | 134 | 114 | 126 | 108 | 103
GGCGUCAAACCAGAACUAGUGAUGUUGGUUCGAGGACCGGUACGGCCGCCACUCGAUCUCUUGGUCCAUCGCGGAAGGGCAGCGG [theeternabot_exclusion_KL_Trp_A_29] | 511 | 369 | 532 | 414 | 622
UCCUGCUGUCAGCCACGAAAGUGGAUUGAUACCAGAGUCGAAAGACUCCCUUGGCAGCGAGUGAUGUUCGCAGCAGGUAAAUAAA [MatMod 3 - Jieux - Exclusion - Theophylline A] | 358 | 257 | 269 | 356 | 256
AGUAUGUAAUAUGGCAUAUUUAGAACUGAAGGAGCGCCGAAUAAGGCAGGUAGGUCGCGGAAAUAUGAGUGAUGUUCAUGUUUAA [KL-SSArg-A25] | 88 | 103 | 101 | 113 | 82.8
GGUAGCAUGGCGGCCGCCACUUUUUUAGAUACCUACACAGAAAGCAGUGAUGUUGCUUGGUGGUAAAGGACCGGGCCAUGCUACC | 149 | 131 | 136 | 137 | 105
AAGCGUGUGGCGGCCGCCACUAGUCUCCAGUGAUGUUGGAGAGAUCACGUAAGUGAUCUCCGACAUAGGACCGGGCCAUAUGGAA [Same State - Tryptophan B (Freestyle 23)] | 69.1 | 125 | 186 | 443 | 214
UUUUUAAUCGCAGAUACCAGUCCAGAAUGAAUACUAUAGUGAUGUUAUAAUAAAGGGAAGGACCCUUGGCAGCUGUACUAUAUUU [AstrosSsTheB#6] | 412 | 308 | 398 | 300 | 299
ACGAUCAUGGCAGGAUAUACGAAUGCAUUAGGGCUGCCAGUGAUGUUGGUGGACCGAGGACGUAGAGUAGAAGGGCCGACUUAAA [Leonmain] | 138 | 169 | 139 | 86.4 | 157
UUUGUAUAGGGAAGGAGCGUGAAUGAUAAAGAAUAUAGUGAUGUUAUAUAGAAGAAAGAAUCACAGGUAGGUCGCCCGGAGGAGG [SSArgB.H] | 599 | 491 | 552 | 450 | 361
GCCCGGUGAAUCCGCCAAGAUAGACACCGUCGAGGACCGGUACGGCCGCCACUCGAGUACGAGUGAUGUUCGUACGCGGUGUCGA [Onedzate] | 606 | 728 | 657 | 431 | 189
GUCGGCCGCGCGCAAGCGCGGCCGGCCGAUACCAGCGCGCCGGUGCGCCCUUGGCAGCGGCACCGAGUGAUGUUCGGUCAGACGA [#2 Same State - Theophylline A Attempt #6 (HarryS)] | 407 | 161 | 308 | 113 | 234
UAGGAGUGAUGUUCCAUGUCUUGAGCCGAAGGAGCGCCUUUCUAGGCAGGUAGGUCGCGGCAGAAGGUACCAGUGAUGUUGGAAA [Same State Arginine A GF8] | 249 | 385 | 372 | 283 | 279
GCCGUAGAUUGAAGGAGCGGGCCGUAGUGAUGUUACGCCAAGUUGUCUUUUAUUGAUGUGGCCCAGGUAGGUCGCAAUCUACGGC | 300 | 287 | 311 | 217 | 273
AGUAGUUGGGCGGCCGCCACUGGAACAGCUUUGCCAAAGGCAGAGCACUAGAGUGAUGUUCUAGCUAGGACCGGGUCCAACUACA [whbob_SS_Tryp_B_t17] | 588 | 250 | 444 | 252 | 1220
GGAUAGGACACGGCCGCCACUACCGAGGAUACUCGAAACAUUUCCUCAGAUGAGUGAUGUUCAUCUAGGACCGGGUGUCCUAUCG [KL-XTryp-B19 #analogue] | 125 | 103 | 118 | 121 | 131
UCGCAUCUCAGAAGGAGCGACAGUGAUUCUGAUAGAAAUCUGAGUGAUGUUCAGAACAGCUGUCAGGUAGGUCGCUGAGAUGCGA [Arg B Ex t8] | 813 | 384 | 547 | 413 | 314
GAUGGUCGAGAAGGAUAUGUGACUACCAGAAGGAAAUUCAGUGAUGUUGAUUGUCGCGAGCAGGAGACAGAAGGUCUCAGACAUA [theeternabot_exclusion_KL_FMN_B_5] | 506 | 265 | 330 | 351 | 276
UAUAUAUGAUGUGAUACCAGUGAAAAGCCAGUGAUGUUGGUAGAACUGGUAUAUAAAUAACACCCUUGGCAGCACAAUCACGUAU [whbob_Ex_Theo_B_sa96] | 155 | 134 | 147 | 191 | 146
CUAGCCGGGAAAGGAUAUACACACGCACAUAACGAGUGAUGUUCGUUAAUACCAACUUGGUUAACUGUAGAAGGUUCAUCGUCAC [theeternabot_sameState_KL_FMN_B_36] | 579 | 576 | 803 | 793 | 517
CGAGUGAUGUUCGAAGAGUUGUUAAGCGAUACCAGCCAGGAAACUGGCCCUUGGCAGCGUAAUAAAUAAAUAAAUAAAUGAUCAC [Theophylline A Exclusion; Euphoria Solution] | 425 | 438 | 472 | 430 | 372

— the supplement of paper PMC9170038
